According to patent US20110045008A1:

Target: platelet GPIIIa (integrin beta3) on platelets (human) (UniProt P05106)
Experiment: cell-based or functional assay

Chain of platelet GPIIIa (integrin beta3) on platelets (human) (P05106 27-788): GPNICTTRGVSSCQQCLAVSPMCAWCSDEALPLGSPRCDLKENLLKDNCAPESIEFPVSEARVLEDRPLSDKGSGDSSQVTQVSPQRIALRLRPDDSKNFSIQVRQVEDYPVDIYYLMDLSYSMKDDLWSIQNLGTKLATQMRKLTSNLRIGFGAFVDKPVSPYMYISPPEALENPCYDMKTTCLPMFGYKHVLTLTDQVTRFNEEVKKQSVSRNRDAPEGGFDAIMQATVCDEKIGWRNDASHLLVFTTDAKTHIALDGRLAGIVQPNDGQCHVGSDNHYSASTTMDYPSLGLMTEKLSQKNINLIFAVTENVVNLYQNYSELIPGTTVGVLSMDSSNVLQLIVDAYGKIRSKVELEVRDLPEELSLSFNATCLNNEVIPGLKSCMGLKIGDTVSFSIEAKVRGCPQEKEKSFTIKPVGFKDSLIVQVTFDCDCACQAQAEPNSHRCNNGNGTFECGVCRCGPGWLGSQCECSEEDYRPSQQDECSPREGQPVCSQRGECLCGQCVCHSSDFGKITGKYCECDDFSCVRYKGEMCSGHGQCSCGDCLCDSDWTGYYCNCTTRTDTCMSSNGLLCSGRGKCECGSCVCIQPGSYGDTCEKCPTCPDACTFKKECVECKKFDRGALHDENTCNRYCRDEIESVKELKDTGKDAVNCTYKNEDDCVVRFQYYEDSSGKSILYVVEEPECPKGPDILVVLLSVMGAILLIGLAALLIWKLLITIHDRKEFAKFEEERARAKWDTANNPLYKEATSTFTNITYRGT

Substance: ADAMTS-18 66 amino acid fragment (1156-1221) (from UniProt Q8TE60 1156-1221) (ligand)
- platelet fragmentation: 85 µM
